In article PMC5678773:

Target: T1, CIB1 (cryptochrome-interacting basic-helix-loop-helix) fused with the GAL4 DNA-binding domain (Arabidopsis) (UniProt Q8GY61)
T1 sequence: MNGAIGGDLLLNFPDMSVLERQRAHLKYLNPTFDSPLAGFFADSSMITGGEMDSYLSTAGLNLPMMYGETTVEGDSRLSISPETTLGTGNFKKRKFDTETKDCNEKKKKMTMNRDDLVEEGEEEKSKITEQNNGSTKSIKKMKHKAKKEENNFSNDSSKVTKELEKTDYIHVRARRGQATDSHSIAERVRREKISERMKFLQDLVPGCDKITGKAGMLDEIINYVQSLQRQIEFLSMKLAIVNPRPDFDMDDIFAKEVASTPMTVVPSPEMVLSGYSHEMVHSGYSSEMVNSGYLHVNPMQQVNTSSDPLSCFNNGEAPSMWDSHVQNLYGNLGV

amiR-D1 transcript (gene downstream of the UAS) by quantitative PCR in the transgenic alga, after blue light irradiation against before (red light culture): > 14 fold
Substance: CRY2 (cryptochrome 2) fused with the VP16 transcription activation domain (from UniProt Q96524 1-612) (natural protein)
